According to patent publication US9266964:

Experiments:
human plasma kallikrein [1] = molecular target: T1, human plasma kallikrein (human, UniProt P03952 20-390; P03952 391-638); assay: cell-based or functional assay
human plasma kallikrein [2] = molecular target: T1, human plasma kallikrein; assay: Ki,app, inhibition of human pKal enzyme activity
[3] = molecular target: T2, human plasma kallikrein (full length, active) (human, UniProt P03952 20-390; P03952 391-638); assay: Ki,app: enzyme inhibition, fluorescent substrate, 2 h pre-incubation at 30 C, tight-binding fit
T2 construct: two disulfide linked polypeptides; also called Full length pKal; pKal
Method: Apparent Inhibition constants (K_{i,app} values) were measured by pre-incubating enzyme and inhibitor solutions prior to initiating the reactions with substrate. Enzyme and inhibitor were pre-incubated for 2 hours at 30° C. in a 96-well plate by adding 10 μL of a 10× enzyme solution and 10 μL of 10× inhibitor solutions to 70 μL of reaction buffer. Reactions were initiated by the addition of 10 μL of a 10× concentrated stock of substrate, and were monitored at 30° C. in a fluorescence plate reader with the excitation and emission wavelengths set at 360 nm/460 nm, respectively. Kinetic data were acquired by the increase in fluorescence, and initial rates for each condition were plotted against the total inhibitor concentration. The data was fit to the following equation for tight binding inhibitors: […]

T2 sequence (P03952 20-390, chain 1 of 2): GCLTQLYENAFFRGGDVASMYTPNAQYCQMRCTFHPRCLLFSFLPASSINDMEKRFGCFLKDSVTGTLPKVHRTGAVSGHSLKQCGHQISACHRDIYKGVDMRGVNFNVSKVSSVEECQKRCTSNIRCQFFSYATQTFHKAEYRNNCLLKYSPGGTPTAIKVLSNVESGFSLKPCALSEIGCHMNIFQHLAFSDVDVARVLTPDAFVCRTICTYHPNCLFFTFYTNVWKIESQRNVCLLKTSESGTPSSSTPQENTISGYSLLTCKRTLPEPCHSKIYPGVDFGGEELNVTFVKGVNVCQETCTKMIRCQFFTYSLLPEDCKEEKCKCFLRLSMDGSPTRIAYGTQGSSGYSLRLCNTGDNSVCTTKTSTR
T2 sequence (P03952 391-638, chain 2 of 2): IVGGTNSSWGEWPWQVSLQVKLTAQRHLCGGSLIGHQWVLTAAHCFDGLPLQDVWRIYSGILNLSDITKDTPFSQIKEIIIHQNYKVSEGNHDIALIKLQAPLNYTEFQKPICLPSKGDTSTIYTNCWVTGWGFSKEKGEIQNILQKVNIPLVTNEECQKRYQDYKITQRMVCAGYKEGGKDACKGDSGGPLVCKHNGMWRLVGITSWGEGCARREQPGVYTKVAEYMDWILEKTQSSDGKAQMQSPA
T1 sequence (P03952 20-390, chain 1 of 2): as the sequence (P03952 20-390, chain 1 of 2) above
T1 sequence (P03952 391-638, chain 2 of 2): as the sequence (P03952 391-638, chain 2 of 2) above

| % inhibition at 10 nM (human plasma kallikrein [1]) [%] | Ki (human plasma kallikrein [2]) [nM] | Ki [3] [nM] | Binder |
| --- | --- | --- | --- |
| 94.3 | 0.3 | – | M200-A10 (Fab, V domains shown, Tested as Fab; printed HC runs into CH1) VH: EVQLLESGGGLVQPGGSLRLSCAASGFTFSHYIMMWVRQAPGKGLEWVSGIYSSGGITVYADSVKGRFTISRDNSKNTLYLQMNSLRAEDTAVYYCAYRRTGVPRRDSFDIWGQGTMVTVSS VL: DIQMTQSPSTLSASVGDRVTITCRASQSISSWLAWYQQKPGKAPNLLIYKASTLESGVPSRFSGSGSGTEFTLTISSLQPDDFATYYCQQYNTYWTFGQGTKVEIK |
| 96.4 | 0.06 | – | M199-A08 (Fab, V domains shown) VH: EVQLLESGGGLVQPGGSLRLSCAASGFTFSHYIMMWVRQAPGKGLEWVSGIYSSGGITVYADSVKGRFTISRDNSKNTLYLQMNSLRAEDTAVYYCAYRRIGVPRRDEFDIWGQGTMVTVSS VL: DIQMTQSPSTLSASVGDRVTITCRASQSISSWLAWYQQKPGKAPNLLIYKASTLESGVPSRFSGSGSGTEFTLTISSLQPDDFATYYCQQYNTYWTFGQGTKVEIK |
| 96.1 | 0.4 | – | M198-A06 (Fab, V domains shown, Tested as Fab; printed HC runs into CH1) VH: EVQLLESGGGLVQPGGSLRLSCAASGFTFSIYSMHWVRQAPGKGLEWVSSIYSSGGPTKYADSVKGRFTISRDNSKNTLYLQMNSLRAEDTAVYYCAYRRTGIPRRDAFDIWGQGTMVTVSS VL: DIQMTQSPSTLSASVGDRVTITCRASQSISSWLAWYQQKPGKAPNLLIYKASTLESGVPSRFSGSGSGTEFTLTISSLQPDDFATYYCQQYNTYWTFGQGTKVEIK |
| 94.9 | 0.6 | – | M197-A09 (Fab, V domains shown, Tested as Fab; printed HC runs into CH1) VH: EVQLLESGGGLVQPGGSLRLSCAASGFTFSVYNMHWVRQAPGKGLEWVSSIYPSGGMTTYADSVKGRFTISRDNSKNTLYLQMNSLRAEDTAVYYCAYRRTGIPRRDAFDIWGQGTMVTVSS VL: DIQMTQSPSTLSASVGDRVTITCRASQSISSWLAWYQQKPGKAPNLLIYKASTLESGVPSRFSGSGSGTEFTLTISSLQPDDFATYYCQQYNTYWTFGQGTKVEIK |
| 94.1 | 0.2 | – | M196-D12 (Fab, V domains shown, Tested as Fab; printed HC runs into CH1) VH: EVQLLESGGGLVQPGGSLRLSCAASGFTFSRYSMRWVRQAPGKGLEWVSVIYPSGGQTYYADSVKGRFTISRDNSKNTLYLQMNSLRAEDTAVYYCAYRRTGIPRRDAFDIWGQGTMVTVSS VL: DIQMTQSPSTLSASVGDRVTITCRASQSISSWLAWYQQKPGKAPNLLIYKASTLESGVPSRFSGSGSGTEFTLTISSLQPDDFATYYCQQYNTYWTFGQGTKVEIK |
| 95.7 | 0.1 | – | M202-H03 (Fab, V domains shown, Tested as Fab; printed HC runs into CH1; Same CDRs as M202-C01, differs at the residue before HV-CDR3 (F for Y)) VH: EVQLLESGGGLVQPGGSLRLSCAASGFTFSHYIMMWVRQAPGKGLEWVSGIYSSGGITVYADSVKGRFTISRDNSKNTLYLQMNSLRAEDTAVYYCAFRRTGVPRWDDFDIWGQGTMVTVSS VL: DIQMTQSPSTLSASVGDRVTITCRASQSISSWLAWYQQKPGKAPNLLIYKASTLESGVPSRFSGSGSGTEFTLTISSLQPDDFATYYCQQYNTYWTFGQGTKVEIK |
| 93.1 | 0.3 | – | M202-B03 (Fab, V domains shown, Tested as Fab; printed HC runs into CH1) VH: EVQLLESGGGLVQPGGSLRLSCAASGFTFSHYIMMWVRQAPGKGLEWVSGIYSSGGITVYADSVKGRFTISRDNSKNTLYLQMNSLRAEDTAVYYCAYRRTGVPRRDDFDIWGQGTMVTVSS VL: DIQMTQSPSTLSASVGDRVTITCRASQSISSWLAWYQQKPGKAPNLLIYKASTLESGVPSRFSGSGSGTEFTLTISSLQPDDFATYYCQQYNTYWTFGQGTKVEIK |
| 95.7 | 0.1 | – | M201-A07 (Fab, V domains shown, Tested as Fab; printed HC runs into CH1) VH: EVQLLESGGGLVQPGGSLRLSCAASGFTFSHYIMMWVRQAPGKGLEWVSGIYSSGGITVYADSVKGRFTISRDNSKNTLYLQMNSLRAEDTAVYYCAYRRTGVPRRDEFDIWGQGTMVTVSS VL: DIQMTQSPSTLSASVGDRVTITCRASQSISSWLAWYQQKPGKAPNLLIYKASTLESGVPSRFSGSGSGTEFTLTISSLQPDDFATYYCQQYNTYWTFGQGTKVEIK |
| 95.9 | 0.1 | – | M200-D03 (Fab, V domains shown, Tested as Fab; printed HC runs into CH1) VH: EVQLLESGGGLVQPGGSLRLSCAASGFTFSHYIMMWVRQAPGKGLEWVSGIYSSGGITVYADSVKGRFTISRDNSKNTLYLQMNSLRAEDTAVYYCAWRRIGVPRRDSFDMWGQGTMVTVSS VL: DIQMTQSPSTLSASVGDRVTITCRASQSISSWLAWYQQKPGKAPNLLIYKASTLESGVPSRFSGSGSGTEFTLTISSLQPDDFATYYCQQYNTYWTFGQGTKVEIK |
| 97.5 | 0.2 | – | M202-A12 (Fab, V domains shown, Tested as Fab; printed HC runs into CH1) VH: EVQLLESGGGLVQPGGSLRLSCAASGFTFSHYIMMWVRQAPGKGLEWVSGIYSSGGITVYADSVKGRFTISRDNSKNTLYLQMNSLRAEDTAVYYCAYQRTGVPRRDSFNIWGQGTMVTVSS VL: DIQMTQSPSTLSASVGDRVTITCRASQSISSWLAWYQQKPGKAPNLLIYKASTLESGVPSRFSGSGSGTEFTLTISSLQPDDFATYYCQQYNTYWTFGQGTKVEIK |
| 96.3 | 0.1 | – | M202-C01 (Fab, V domains shown, Tested as Fab; printed HC runs into CH1) VH: EVQLLESGGGLVQPGGSLRLSCAASGFTFSHYIMMWVRQAPGKGLEWVSGIYSSGGITVYADSVKGRFTISRDNSKNTLYLQMNSLRAEDTAVYYCAYRRTGVPRWDDFDIWGQGTMVTVSS VL: DIQMTQSPSTLSASVGDRVTITCRASQSISSWLAWYQQKPGKAPNLLIYKASTLESGVPSRFSGSGSGTEFTLTISSLQPDDFATYYCQQYNTYWTFGQGTKVEIK |
| 63.5 | 0.7 | – | M198-D12 (Fab, V domains shown, Tested as Fab; printed HC runs into CH1) VH: EVQLLESGGGLVQPGGSLRLSCAASGFTFSLYVMYWVRQAPGKGLEWVSYIVPSGGPTAYADSVKGRFTISRDNSKNTLYLQMNSLRAEDTAVYYCAYRRTGIPRRDAFDIWGQGTMVTVSS VL: DIQMTQSPSTLSASVGDRVTITCRASQSISSWLAWYQQKPGKAPNLLIYKASTLESGVPSRFSGSGSGTEFTLTISSLQPDDFATYYCQQYNTYWTFGQGTKVEIK |
| 97.2 | 0.1 | – | M196-C06 (Fab, V domains shown, Tested as Fab; printed HC runs into CH1) VH: EVQLLESGGGLVQPGGSLRLSCAASGFTFSIYSMHWVRQAPGKGLEWVSSIYPSRGMTWYADSVKGRFTISRDNSKNTLYLQMNSLRAEDTAVYYCAYRRTGIPRRDAFDIWGQGTMVTVSS VL: DIQMTQSPSTLSASVGDRVTITCRASQSISSWLAWYQQKPGKAPNLLIYKASTLESGVPSRFSGSGSGTEFTLTISSLQPDDFATYYCQQYNTYWTFGQGTKVEIK |
| 96.9 | 0.2 | – | M198-F09 (Fab, V domains shown, Tested as Fab; printed HC runs into CH1) VH: EVQLLESGGGLVQPGGSLRLSCAASGFTFSVYNMHWVRQAPGKGLEWVSSIYPSGGMTYYADSVKGRFTISRDNSKNTLYLQMNSLRAEDTAVYYCAYRRTGIPRRDAFDIWGQGTMVTVSS VL: DIQMTQSPSTLSASVGDRVTITCRASQSISSWLAWYQQKPGKAPNLLIYKASTLESGVPSRFSGSGSGTEFTLTISSLQPDDFATYYCQQYNTYWTFGQGTKVEIK |
| 95 | 0.4 | – | M202-D09 (Fab, V domains shown, Tested as Fab; printed HC runs into CH1) VH: EVQLLESGGGLVQPGGSLRLSCAASGFTFSHYIMMWVRQAPGKGLEWVSGIYSSGGITVYADSVKGRFTISRDNSKNTLYLQMNSLRAEDTAVYYCAYRRIGVPRRDSFDIWGQGTMVTVSS VL: DIQMTQSPSTLSASVGDRVTITCRASQSISSWLAWYQQKPGKAPNLLIYKASTLESGVPSRFSGSGSGTEFTLTISSLQPDDFATYYCQQYNTYWTFGQGTKVEIK |
| 92.3 | 0.3 | – | M202-C09 (Fab, V domains shown, Tested as Fab; printed HC runs into CH1) VH: EVQLLESGGGLVQPGGSLRLSCAASGFTFSHYIMMWVRQAPGKGLEWVSGIYSSGGITVYADSVKGRFTISRDNSKNTLYLQMNSLRAEDTAVYYCAYRRIGVPRRDDFDIWGQGTMVTVSS VL: DIQMTQSPSTLSASVGDRVTITCRASQSISSWLAWYQQKPGKAPNLLIYKASTLESGVPSRFSGSGSGTEFTLTISSLQPDDFATYYCQQYNTYWTFGQGTKVEIK |
| – | – | 0.25 | X115-D05 (antibody, V domains shown, only variable domains given; also called 559A-X115-D05; 559A-X0115-D05) VH: EVQLLESGGGLVQPGGSLRLSCAASGFTFSDYMMAWVRQAPGKGLEWVSSIVPSGGHTHYADSVKGRFTISRDNSKNTLYLQMNSLRAEDTAVYYCARVARGIAARSRTSYFDYWGQGTLVTVSS VL: EIVLTQSPGTLSLSPGERATLSCRTSQFVNSNYLAWYQQKPGQAPRLLIYGASSRATGIPDRFSGSGSGTDFTLTISRLEPEDFAVYYCQQSSRTPWTFGQGTKVEIK |
| – | – | 0.35 | X115-H06 (antibody, V domains shown, only variable domains given; also called 559A-X115-H06; 559A-X0115-H06) VH: EVQLLESGGGLVQPGGSLRLSCAASGFTFSHYLMTWVRQAPGKGLEWVSYISPSGGHTIYADSVKGRFTISRDNSKNTLYLQMNSLRAEDTAVYYCARVAQGISARSRTSYFDYWGQGTLVTVSS VL: EIVLTQSPGTLSLSPGERATLSCRTSQFVNSNYLAWYQQKPGQAPRLLIYGASSRATGIPDRFSGSGSGTDFTLTISRLEPEDFAVYYCQQSSRTPWTFGQGTKVEIK |
| – | – | 0.34 | X115-E09 (antibody, V domains shown, only variable domains given; also called 559A-X115-E09; 559A-X0115-E09) VH: EVQLLESGGGLVQPGGSLRLSCAASGFTFSHYLMTWVRQAPGKGLEWVSYISPSGGHTIYADSVKGRFTISRDNSKNTLYLQMNSLRAEDTAVYYCARVAQGIAARSRTSSVDQWGQGTLVTVSS VL: EIVLTQSPGTLSLSPGERATLSCRTSQFVNSNYLAWYQQKPGQAPRLLIYGASSRATGIPDRFSGSGSGTDFTLTISRLEPEDFAVYYCQQSSRTPWTFGQGTKVEIK |
